Results: publication PMC3378891

T1: FANCI (chicken, UniProt B0I564 1-1338)
T1 sequence: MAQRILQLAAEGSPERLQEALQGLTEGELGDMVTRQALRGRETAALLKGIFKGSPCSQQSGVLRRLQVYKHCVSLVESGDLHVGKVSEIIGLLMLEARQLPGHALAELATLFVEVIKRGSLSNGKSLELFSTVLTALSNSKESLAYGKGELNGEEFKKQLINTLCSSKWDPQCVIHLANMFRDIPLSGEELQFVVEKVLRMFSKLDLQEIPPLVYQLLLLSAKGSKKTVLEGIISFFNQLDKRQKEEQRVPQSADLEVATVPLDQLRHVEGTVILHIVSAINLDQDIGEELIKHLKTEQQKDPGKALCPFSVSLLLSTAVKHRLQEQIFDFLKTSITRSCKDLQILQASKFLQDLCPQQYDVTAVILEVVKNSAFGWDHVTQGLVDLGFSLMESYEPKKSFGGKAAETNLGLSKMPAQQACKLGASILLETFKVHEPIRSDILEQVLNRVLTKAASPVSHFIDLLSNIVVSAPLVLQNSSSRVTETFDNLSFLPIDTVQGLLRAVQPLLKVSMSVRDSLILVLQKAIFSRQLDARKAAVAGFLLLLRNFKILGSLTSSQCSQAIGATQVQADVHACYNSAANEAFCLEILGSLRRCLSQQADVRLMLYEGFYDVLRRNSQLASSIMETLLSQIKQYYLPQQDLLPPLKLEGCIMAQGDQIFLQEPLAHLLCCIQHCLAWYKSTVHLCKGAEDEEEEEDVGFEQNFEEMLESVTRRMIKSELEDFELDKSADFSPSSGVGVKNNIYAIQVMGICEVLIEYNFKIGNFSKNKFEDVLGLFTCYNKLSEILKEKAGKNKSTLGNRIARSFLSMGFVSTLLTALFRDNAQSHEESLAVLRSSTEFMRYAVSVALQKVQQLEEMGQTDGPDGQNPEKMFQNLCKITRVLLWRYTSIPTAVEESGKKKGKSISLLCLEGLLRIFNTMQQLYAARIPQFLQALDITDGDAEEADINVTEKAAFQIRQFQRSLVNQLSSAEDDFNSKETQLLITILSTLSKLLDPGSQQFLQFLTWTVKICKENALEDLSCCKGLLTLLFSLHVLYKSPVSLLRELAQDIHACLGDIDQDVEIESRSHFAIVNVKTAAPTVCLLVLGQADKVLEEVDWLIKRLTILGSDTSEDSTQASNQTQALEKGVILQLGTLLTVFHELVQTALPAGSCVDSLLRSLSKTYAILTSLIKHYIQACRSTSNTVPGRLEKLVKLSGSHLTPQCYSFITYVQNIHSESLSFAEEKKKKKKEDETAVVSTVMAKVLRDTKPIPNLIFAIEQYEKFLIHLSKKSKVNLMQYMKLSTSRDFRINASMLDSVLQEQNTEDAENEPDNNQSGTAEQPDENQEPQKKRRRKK

T2: GST-FANCL (chicken, UniProt Q3MUH5 1-373)
T2 sequence: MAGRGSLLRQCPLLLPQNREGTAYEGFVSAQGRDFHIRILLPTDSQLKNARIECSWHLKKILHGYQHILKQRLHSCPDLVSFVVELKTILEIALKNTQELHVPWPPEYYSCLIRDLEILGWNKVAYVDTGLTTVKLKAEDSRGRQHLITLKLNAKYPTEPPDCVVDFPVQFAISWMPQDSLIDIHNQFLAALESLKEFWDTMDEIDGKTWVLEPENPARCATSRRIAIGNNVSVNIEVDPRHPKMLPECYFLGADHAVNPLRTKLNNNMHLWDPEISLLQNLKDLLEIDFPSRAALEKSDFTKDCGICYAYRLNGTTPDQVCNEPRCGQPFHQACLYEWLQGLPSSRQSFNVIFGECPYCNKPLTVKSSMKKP

B1: synthetic Holliday junction (HJ) (structured_DNA)
DNA 1: ATCGATGTCTCTAGACAGCTGCTCAGGATTGATCTGTAATGGCCTGGGA
DNA 2: GTCCCAGGCCATTACAGATCAATCCTGAGCATGTTTACCAAGCGCATTG
DNA 3: TGATCACTTGCTAGCGTCGCAATCCTGAGCAGCTGTCTAGAGACATCGA
DNA 4: CCAATGCGCTTGGTAAACATGCTCAGGATTGCGACGCTAGCAAGTGATC
B2: 5' flapped DNA (structured_DNA)
DNA 1: ATCGATGTCTCTAGACAGCTGCTCAGGATTGATCTGTAATGGCCTGGGA
DNA 2: GTCCCAGGCCATTACAGATCAATCCTGAGCATGTTTACCAAGCGCATTG
DNA 3: CAATGCGCTTGGTAAACA

Key:
Test in all cases: EMSA
[1] = biological target: T1, FANCI
[2] = biological target: T2, GST-FANCL
[3] = biological target: UBE2T (human, UniProt Q9NPD8 1-197)
[4] = biological target: FANCI;FANCD2 (chicken;chicken, UniProt B0I564;Q68Y81 1-1338;1-1439, |)
FANCI;FANCD2, sequence (Q68Y81 whole entry, one chain of several): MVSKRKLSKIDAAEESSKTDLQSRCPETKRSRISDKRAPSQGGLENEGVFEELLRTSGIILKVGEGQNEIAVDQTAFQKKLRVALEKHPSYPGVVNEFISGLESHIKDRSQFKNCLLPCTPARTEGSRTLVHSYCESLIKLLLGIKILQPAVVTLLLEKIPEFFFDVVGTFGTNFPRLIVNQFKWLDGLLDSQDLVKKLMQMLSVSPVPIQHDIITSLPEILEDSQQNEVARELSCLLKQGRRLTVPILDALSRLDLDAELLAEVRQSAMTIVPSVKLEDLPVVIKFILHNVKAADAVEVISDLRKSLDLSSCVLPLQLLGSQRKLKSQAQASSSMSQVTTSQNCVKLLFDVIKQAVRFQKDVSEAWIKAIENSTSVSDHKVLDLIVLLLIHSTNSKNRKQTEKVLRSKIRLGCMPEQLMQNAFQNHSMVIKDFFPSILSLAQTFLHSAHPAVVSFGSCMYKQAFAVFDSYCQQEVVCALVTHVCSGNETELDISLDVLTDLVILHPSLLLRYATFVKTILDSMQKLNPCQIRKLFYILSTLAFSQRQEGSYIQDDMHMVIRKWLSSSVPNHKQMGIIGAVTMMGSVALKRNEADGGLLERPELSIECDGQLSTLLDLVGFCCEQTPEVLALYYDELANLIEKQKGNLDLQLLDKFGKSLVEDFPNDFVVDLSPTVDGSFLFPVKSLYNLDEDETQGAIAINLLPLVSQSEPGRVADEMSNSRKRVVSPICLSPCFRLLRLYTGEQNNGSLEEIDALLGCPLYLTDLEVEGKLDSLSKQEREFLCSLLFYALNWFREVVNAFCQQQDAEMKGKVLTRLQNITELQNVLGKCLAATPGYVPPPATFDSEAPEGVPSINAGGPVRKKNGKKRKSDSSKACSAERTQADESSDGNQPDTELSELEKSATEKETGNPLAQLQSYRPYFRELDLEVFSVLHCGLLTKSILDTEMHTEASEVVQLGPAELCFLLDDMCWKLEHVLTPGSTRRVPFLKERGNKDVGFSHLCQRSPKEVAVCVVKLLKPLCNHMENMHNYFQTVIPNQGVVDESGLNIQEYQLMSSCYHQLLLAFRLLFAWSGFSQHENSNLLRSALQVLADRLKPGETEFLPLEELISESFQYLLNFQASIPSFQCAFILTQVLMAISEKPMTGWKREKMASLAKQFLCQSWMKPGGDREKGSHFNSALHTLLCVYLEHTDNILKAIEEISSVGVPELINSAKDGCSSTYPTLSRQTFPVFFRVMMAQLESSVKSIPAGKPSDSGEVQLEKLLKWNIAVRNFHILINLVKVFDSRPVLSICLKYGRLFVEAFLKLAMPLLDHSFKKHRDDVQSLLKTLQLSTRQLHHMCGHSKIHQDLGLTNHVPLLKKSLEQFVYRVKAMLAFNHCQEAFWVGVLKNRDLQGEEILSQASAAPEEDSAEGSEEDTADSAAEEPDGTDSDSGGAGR

UBE2T, sequence (Q9NPD8 whole entry): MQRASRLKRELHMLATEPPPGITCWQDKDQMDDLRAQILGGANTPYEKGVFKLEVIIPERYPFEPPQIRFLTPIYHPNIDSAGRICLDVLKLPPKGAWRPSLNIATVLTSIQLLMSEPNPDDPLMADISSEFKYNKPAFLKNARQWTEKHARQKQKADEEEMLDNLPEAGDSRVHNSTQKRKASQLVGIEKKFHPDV

Binder	binding result [1]	binding result [2]	binding result [3]	binding result [4]
B1	binds			
B2		no binding	no binding	binds
